# In article PMC4390396:
# B1: E. coli UbiA (EcUbiA) (Escherichia coli K-12; R60A) (protein)
# chain: MEWSLTQNKLLAFHRLMRTDKPIGALLLLWPTLWALWVATPGVPQLWILAVFVAGVWLMAAAGCVVNDYADRKFDGHVKRTANRPLPSGAVTEKEARALFVVLVLISFLLVLTLNTMTILLSIAALALAWVYPFMKRYTHLPQVVLGAAFGWSIPMAFAAVSESVPLSCWLMFLANILWAVAYDTQYAMVDRDDDVKIGIKSTAILFGQYDKLIIGILQIGVLALMAIIGELNGLGWGYYWSILVAGALFVYQQKLIANREREACFKAFMNNNYVGLVLFLGLAMSYWHF
# Substrate: O=C(O)c1ccc(O)cc1
# Test: cells, lysate or membranes
protein,measurement,value
B1,Km,3000 µM
